Sequences and labels used below:
B1: 03D01 (antibody, IgG4, V domains shown)
VH: EVQLVQSGGGLVQPGGSLRLSCAATGFTVSRNYMTWVREAPGKGLEWVAGIYKSGTTSYIESVKGRFTISRDNSKNTLYLEMSRLRAEDTAVYYCAKSTSTWGQGTQVTVSS
VL: DVVMTQSPVSLPVTLGQPASISCRSSRNLLYSNGNTYLNWFHQRPGQSPRRLIYKVSNQDSGVPDRFSGSGSGTDFTLKISRVEAEDVGVYYCMQGTHWPTTFGQGTRLEIK
B2: 09B09 (antibody, IgG4, V domains shown)
VH: EVKLLESGGGLVQPGGSLRLSCAASGITFSTYAMMWVRQAPGKGLEWVSGISGSGASRYYADSVKGRFTISRDNSKNMLYLQMNSLRAEDTAVYYCAKKVLGRRKQYFDDWGQGTLVTVSS
VL: DIVMTQSPLSLPVTPGEPASISCRSSQSLLHSNGYNYLDWYLQRPGQSPQLLIYLGSHRASGVPDRFSGSGSGTEHTLKITTVAAEDVGVYYCMQALQSPPTFGQGTRLDIK
B3: 01A04 (antibody, IgG4, V domains shown)
VH: EVQLVQSGAEVKKPGASVKVSCKASGYTFTSYYIHWVRQAPGQGLEWMGIIRPSGGSTSYAQKFQGRVTMTRDTSTSTVYMELSSLRSEDTAMYYCARVGVGSFDYWGQGTLVTVSS
VL: DIQMTQSPSTLSASVGDRVTITCRASQSVSNWLAWYQQKPGKAPKLLIYKASSLESGVPSRFSGSGSGTEFTLTISSLQPDDFATYYCQWFRTFGPGTKVDIK
B4: 09D11 (antibody, IgG4, V domains shown)
VH: QVQLVESGGGFIQPGGSLRLSCAASGLTFSNYAMTWVRQAPGKGLEWVSTISGGGGNTYYTDSVKGRFTISRDNSKNTLYLQMNSLKAEDTAVYRCAKGLAAALFDYWGQGTLVTVSS
VL: DIVLTQSPDSLPVTPGEPASISCRSSRSLLHSNGHNFLAWYLQKPGQSPHLLIYLGSNRASGVPDRFSGSGSGTDFTLKISRVEAEDVGIYYCMQALQTPITFGQGTRLDIK

The test has as its target T1, Scrambled Y42,52,63(SO3) PSGL-1(42-62) biotin peptide.
T1 sequence (peptide, sulfotyrosine at peptide positions 1, 11 and 22; C-terminal Lys-biotin): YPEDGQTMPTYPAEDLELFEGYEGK
Kind of test: ELISA, immobilized biotin peptide. On the technique in general: An ELISA detects its analyte on a solid surface through an enzyme-linked reagent.
B1 had an A450nm, 20 nM mAb of 0.12 A450nm.
Take B2: the A450nm, 20 nM mAb stood at 0.37 A450nm.
Under B3 stands 0.13 A450nm.
In the case of B4 it was 0.09 A450nm.

The values above are taken from patent publication US20220396632A1.
